Source: publication PMC6428923 (Biophysical Journal, 2019)
Where no end group is shown, it is not given here. The star is where a group is joined. Farnesyl = CC(C)=CCC/C(C)=C/CC/C(C)=C/C*

Legend:
[1] = target: calmodulin (CaM), full-length, amino acids 2-148 (human, UniProt P0DP23 2-148); assay: ITC
[2] = target: calmodulin (CaM), full-length, amino acids 2-148 (human, UniProt P0DP23 2-148); assay: ITC; remark: listed apart in the source

KSKTKC(geranyl) (not fully specified (C-terminus); also: methylated (site not given here)) [KSKTKC-geranyl methylated (KSKTKC-GMe)]
Kd [1]: 3000 nM

HKEKMSKDGKKKKKKSKTKC(Farnesyl)-OMe [HVR-FMe (hypervariable region of KRAS4b, farnesylated and carboxy-methylated)]
Kd [2]: 300 nM

KSKTKC(Farnesyl)-OMe [KSKTKC-FMe]
Kd [1]: 400 nM

KSKTKC (not fully specified; cysteine with a five-carbon prenyl group, methylated (PMe)) [KSKTKC-prenyl methylated (KSKTKC-PMe)]
Kd [1]: 30000 nM
